Laboratory results reported in patent publication US20230304047A1.

Target: wildtype S. pyogenes Cas9 (S. pyogenes) (UniProt Q99ZW2)
Test: cell-based or functional assay

Sequence of UniProt Q99ZW2 (Q99ZW2 whole entry): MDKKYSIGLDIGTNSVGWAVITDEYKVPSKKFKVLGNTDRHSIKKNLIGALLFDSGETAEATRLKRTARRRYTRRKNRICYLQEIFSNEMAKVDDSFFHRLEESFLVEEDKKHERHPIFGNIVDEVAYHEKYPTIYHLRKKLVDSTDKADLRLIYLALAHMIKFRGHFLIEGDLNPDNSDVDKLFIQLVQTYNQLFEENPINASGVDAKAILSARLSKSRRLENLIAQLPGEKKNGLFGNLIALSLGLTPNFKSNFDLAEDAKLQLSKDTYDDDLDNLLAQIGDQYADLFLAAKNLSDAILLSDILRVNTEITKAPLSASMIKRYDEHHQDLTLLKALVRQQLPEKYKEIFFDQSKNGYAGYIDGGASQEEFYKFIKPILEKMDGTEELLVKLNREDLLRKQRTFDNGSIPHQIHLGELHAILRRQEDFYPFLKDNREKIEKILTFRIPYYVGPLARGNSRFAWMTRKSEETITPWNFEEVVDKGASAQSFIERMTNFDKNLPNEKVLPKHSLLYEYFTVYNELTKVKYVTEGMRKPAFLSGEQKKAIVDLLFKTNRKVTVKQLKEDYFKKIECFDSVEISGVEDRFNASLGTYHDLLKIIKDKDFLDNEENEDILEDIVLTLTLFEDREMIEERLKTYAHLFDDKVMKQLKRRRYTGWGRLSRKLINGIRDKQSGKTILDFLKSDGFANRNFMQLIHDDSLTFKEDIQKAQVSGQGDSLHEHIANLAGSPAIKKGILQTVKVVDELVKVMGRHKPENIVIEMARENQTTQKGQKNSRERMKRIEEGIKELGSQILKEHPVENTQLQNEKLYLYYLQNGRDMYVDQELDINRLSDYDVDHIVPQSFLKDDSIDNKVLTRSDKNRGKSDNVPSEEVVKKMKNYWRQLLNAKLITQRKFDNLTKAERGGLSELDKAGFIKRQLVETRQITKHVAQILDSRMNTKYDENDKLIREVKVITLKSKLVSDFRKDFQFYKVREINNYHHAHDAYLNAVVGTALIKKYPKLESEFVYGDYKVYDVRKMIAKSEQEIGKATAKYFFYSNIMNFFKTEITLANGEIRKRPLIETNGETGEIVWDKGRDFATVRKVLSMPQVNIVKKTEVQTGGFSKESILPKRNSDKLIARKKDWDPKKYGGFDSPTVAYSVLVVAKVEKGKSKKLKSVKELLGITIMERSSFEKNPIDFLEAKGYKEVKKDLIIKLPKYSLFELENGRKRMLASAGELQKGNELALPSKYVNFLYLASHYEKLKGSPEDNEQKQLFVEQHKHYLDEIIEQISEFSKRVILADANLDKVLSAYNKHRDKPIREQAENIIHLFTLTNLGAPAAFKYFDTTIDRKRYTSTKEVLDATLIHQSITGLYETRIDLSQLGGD

Substance: AcrIIA2-Cdt1 fusion protein
- HDR (GFP correction) in RPE1 reporter cells deficient of p53, AcrIIA2-Cdt1 protein co-transfected with WT CRISPR-Cas9 RNP: 2 fold
- HDR (GFP correction) in RPE1 reporter cells, AcrIIA2-Cdt1 protein co-transfected with WT CRISPR-Cas9 RNP: 3 fold
